Article PMC8304084, “A Concerted Action of UBA5 C-Terminal Unstructured Regions Is Important for Transfer of Activated UFM1 to UFC1” (International Journal of Molecular Sciences, 2021)

Legend:
[1] = target: Full length UFC1, residues 1–167 (UniProt Q9Y3C8); experiment: ITC; VP-ITC, 25 °C; UBA5 peptides (~400 µM) titrated into 20–25 µM binding partner; 25 mM HEPES pH 7.5, 100 mM NaCl; one-site model; a single profile for each interaction
[2] = target: Full length UBA5, residues 1–404 (human) (UniProt Q9GZZ9); experiment: ITC; UFC1 titrated to FL^1–404 and to FL^1–404 C250K~UFM1; 25 °C; 25 mM HEPES pH 7.5, 100 mM NaCl; one-site model
[3] = target: Full length UBA5 (res. 1–404) C250K mutant stably conjugated to UFM1 (UniProt Q9GZZ9); experiment: as above
Sequence of Full length UBA5 (res. 1–404) C250K mutant stably conjugated to UFM1 (Q9GZZ9 whole entry C250K, chain 1 of 2): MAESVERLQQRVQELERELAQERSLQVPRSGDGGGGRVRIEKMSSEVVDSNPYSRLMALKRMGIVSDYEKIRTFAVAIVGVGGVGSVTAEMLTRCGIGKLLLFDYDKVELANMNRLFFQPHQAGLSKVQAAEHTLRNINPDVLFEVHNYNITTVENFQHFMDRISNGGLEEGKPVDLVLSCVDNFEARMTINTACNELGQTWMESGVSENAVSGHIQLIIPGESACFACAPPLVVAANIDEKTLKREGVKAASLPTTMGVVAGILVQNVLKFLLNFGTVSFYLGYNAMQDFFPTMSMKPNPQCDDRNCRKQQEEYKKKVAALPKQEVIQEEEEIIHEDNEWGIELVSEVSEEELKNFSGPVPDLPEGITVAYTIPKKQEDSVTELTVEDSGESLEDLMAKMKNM
Sequence of Full length UBA5 (res. 1–404) C250K mutant stably conjugated to UFM1 (P61960 other isoform, or with tags, fused parts or gaps C250K, chain 2 of 2, further chain): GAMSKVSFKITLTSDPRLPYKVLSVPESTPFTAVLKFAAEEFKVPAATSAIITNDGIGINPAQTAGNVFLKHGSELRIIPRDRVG

Sequence of UBA5 C-terminal regions R2 and R3, residues 359–404 (Q9GZZ9 other isoform, or with tags, fused parts or gaps): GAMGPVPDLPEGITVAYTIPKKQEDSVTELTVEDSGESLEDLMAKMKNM
Sequence of UBA5 C-terminal region R2, residues 359–376 (Q9GZZ9 other isoform, or with tags, fused parts or gaps): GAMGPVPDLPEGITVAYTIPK

Row | Ka [1] | Kd [1] | dH [1] | stoichiometry N [1] | Substance | further results
1 | 600000 M⁻¹ | 1.6 µM | -7.78 kcal/mol | 1.03 | UBA5 C-terminal part with A371E mutant (res. 325–404) (from UniProt Q9GZZ9 325-404) (domain or fragment) | 
2 | 410000 M⁻¹ | 2.4 µM | -7.04 kcal/mol | 1.03 | UBA5 C-terminal part, residues 325–404 (from UniProt Q9GZZ9 325-404) (domain or fragment) | 

Second part, the substance before the results:

Row | Substance | Ka [1] | Kd [1] | dH [1] | stoichiometry N [1] | further results
3 | UBA5 C-terminal regions R2 and R3, residues 359–404 (from UniProt Q9GZZ9 359-404) (peptide) | 370000 M⁻¹ | 2.7 µM | -8.08 kcal/mol | 0.97 | 
4 | Full length UFC1, residues 1–167 (from UniProt Q9Y3C8 1-167) (enzyme) |  |  |  |  | Ka [2]: 720000 M⁻¹; Kd [2]: 1.4 µM; dH [2]: -7.62 kcal/mol; stoichiometry N [2]: 0.97; Ka [3]: 870000 M⁻¹; Kd [3]: 1.2 µM; dH [3]: -8.21 kcal/mol; stoichiometry N [3]: 1.03
5 | UBA5 C-terminal region R2, residues 359–376 (from UniProt Q9GZZ9 359-376) (peptide) |  | > 50 µM |  |  | 
6 | UBA5 C-terminal part with A371T mutant (res. 325–404) (from UniProt Q9GZZ9 325-404) (domain or fragment) | 540000 M⁻¹ | 1.8 µM | -7.88 kcal/mol | 1.03 | 
